Columns and labels:
PTPRS expressed on cells = molecular target: T1, PTPRS expressed on cells (human, UniProt Q13332 30-1948); experiment: cell surface interaction assay: streptavidin-tetramerized biotinylated ECD on transfected cells, immunofluorescence
T1 construct: whole, on cells; also called receptor-type tyrosine-protein phosphatase S

PTPRF expressed on cells [1] = molecular target: T2, PTPRF expressed on cells (human, UniProt P10586 30-1907); experiment: as above
T2 construct: whole, on cells; also called receptor-type tyrosine-protein phosphatase F
T2 sequence (P10586 30-1907): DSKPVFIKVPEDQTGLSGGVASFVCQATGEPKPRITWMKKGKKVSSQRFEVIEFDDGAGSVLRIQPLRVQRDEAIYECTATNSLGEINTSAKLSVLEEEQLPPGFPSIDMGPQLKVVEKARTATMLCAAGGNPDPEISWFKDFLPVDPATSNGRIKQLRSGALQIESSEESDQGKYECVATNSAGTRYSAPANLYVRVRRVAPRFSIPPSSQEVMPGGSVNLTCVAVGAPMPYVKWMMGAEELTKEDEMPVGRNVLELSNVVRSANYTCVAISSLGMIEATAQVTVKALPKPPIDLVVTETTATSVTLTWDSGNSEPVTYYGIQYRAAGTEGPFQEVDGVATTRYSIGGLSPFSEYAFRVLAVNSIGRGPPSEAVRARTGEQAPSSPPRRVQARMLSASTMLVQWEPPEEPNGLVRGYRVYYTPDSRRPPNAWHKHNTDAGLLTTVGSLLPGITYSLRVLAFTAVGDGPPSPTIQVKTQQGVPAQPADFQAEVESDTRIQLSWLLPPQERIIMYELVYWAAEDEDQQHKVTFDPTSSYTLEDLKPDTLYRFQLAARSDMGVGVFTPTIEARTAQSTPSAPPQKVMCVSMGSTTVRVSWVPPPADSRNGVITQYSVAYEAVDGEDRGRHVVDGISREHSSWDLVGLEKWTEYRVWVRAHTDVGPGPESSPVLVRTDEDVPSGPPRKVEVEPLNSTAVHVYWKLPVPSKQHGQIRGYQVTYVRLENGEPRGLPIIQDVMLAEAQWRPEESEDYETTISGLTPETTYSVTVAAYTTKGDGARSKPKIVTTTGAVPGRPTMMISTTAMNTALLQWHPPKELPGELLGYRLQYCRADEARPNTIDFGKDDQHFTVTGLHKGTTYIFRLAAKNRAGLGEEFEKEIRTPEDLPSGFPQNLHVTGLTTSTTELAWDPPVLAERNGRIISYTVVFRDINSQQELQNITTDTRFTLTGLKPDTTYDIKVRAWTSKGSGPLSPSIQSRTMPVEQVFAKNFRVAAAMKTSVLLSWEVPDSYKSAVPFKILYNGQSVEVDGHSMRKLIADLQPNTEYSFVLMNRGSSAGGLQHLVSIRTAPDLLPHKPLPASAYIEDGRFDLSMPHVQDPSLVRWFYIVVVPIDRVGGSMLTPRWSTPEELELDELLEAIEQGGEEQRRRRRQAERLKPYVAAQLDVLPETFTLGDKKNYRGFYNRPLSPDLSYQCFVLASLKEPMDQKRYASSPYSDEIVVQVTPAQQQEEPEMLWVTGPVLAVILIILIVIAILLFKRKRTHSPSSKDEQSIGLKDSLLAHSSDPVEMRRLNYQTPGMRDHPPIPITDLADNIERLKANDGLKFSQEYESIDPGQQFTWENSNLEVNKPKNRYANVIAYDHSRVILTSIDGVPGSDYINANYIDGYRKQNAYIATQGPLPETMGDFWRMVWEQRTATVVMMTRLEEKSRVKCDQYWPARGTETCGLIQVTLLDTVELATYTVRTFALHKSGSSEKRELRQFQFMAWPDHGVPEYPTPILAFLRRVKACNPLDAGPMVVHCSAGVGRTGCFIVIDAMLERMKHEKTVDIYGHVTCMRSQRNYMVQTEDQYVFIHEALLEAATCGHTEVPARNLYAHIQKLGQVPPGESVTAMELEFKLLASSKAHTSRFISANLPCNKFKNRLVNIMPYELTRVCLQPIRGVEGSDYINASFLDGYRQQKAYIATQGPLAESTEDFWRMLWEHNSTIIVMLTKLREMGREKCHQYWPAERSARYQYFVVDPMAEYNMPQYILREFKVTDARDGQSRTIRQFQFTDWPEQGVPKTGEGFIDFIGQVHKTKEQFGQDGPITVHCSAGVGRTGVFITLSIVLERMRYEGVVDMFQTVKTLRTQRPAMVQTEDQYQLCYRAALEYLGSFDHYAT

PTPRD expressed on cells = molecular target: T3, PTPRD expressed on cells (human, UniProt P23468 21-1912); experiment: as above
T3 construct: whole, on cells; also called receptor-type tyrosine-protein phosphatase delta
T3 sequence (P23468 21-1912): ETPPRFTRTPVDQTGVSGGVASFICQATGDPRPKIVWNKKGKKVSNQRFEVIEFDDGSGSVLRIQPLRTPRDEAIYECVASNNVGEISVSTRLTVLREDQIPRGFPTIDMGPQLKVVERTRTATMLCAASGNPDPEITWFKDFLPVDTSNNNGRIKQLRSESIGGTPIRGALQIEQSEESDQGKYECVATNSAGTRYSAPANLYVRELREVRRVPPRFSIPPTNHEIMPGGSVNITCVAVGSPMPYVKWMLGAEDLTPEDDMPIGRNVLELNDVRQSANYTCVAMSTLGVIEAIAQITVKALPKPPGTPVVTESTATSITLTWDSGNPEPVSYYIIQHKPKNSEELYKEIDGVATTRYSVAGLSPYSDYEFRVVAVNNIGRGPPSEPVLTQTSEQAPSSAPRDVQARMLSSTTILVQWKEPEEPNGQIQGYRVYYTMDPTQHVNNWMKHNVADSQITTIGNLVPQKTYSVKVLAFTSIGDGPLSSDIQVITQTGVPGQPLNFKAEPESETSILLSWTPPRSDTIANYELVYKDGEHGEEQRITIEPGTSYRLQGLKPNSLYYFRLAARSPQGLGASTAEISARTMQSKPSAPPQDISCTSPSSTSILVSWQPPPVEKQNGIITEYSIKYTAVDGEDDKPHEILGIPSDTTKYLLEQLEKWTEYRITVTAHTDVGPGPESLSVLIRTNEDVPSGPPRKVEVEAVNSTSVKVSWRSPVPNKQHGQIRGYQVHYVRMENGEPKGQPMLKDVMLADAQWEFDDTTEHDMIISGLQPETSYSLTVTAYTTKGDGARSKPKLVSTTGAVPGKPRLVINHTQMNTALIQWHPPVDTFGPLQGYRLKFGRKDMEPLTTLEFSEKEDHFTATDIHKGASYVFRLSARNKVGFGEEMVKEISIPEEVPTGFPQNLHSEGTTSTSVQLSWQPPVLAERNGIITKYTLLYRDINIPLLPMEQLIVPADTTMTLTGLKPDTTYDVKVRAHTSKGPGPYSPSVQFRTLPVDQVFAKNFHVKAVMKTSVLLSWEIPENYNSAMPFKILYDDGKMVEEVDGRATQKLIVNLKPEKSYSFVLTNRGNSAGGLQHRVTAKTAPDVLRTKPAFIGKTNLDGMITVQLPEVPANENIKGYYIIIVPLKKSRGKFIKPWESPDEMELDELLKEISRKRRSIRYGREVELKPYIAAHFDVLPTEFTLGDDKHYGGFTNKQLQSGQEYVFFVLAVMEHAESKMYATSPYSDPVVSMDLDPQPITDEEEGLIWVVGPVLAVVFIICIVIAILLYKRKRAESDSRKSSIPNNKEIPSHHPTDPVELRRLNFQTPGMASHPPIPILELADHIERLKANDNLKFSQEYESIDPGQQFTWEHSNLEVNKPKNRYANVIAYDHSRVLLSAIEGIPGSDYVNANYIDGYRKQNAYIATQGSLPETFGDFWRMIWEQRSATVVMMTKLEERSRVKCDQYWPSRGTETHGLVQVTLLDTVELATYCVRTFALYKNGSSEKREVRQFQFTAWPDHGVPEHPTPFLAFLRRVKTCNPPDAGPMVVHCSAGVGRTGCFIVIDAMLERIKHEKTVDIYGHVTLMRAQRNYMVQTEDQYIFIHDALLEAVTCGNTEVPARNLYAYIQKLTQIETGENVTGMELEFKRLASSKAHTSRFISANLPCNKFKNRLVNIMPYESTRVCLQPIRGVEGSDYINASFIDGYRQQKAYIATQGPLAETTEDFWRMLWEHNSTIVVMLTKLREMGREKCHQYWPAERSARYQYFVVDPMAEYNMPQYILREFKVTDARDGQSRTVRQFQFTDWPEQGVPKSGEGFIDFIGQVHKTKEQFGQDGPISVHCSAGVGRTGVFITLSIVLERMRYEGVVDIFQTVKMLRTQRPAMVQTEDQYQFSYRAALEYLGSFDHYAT

[2] = molecular target: T4, CHL1 extracellular domain (human, UniProt O00533 25-1082); experiment: SPR, CHL1 immobilized, CNTN1 ECD-Fc injected at 250 nM
T4 construct: extracellular domain; Soluble query (streptavidin tetramer) in cell assays; recombinant protein (R&D) in SPR; also called neural cell adhesion molecule L1-like protein; close homolog of L1
T4 sequence (looked up): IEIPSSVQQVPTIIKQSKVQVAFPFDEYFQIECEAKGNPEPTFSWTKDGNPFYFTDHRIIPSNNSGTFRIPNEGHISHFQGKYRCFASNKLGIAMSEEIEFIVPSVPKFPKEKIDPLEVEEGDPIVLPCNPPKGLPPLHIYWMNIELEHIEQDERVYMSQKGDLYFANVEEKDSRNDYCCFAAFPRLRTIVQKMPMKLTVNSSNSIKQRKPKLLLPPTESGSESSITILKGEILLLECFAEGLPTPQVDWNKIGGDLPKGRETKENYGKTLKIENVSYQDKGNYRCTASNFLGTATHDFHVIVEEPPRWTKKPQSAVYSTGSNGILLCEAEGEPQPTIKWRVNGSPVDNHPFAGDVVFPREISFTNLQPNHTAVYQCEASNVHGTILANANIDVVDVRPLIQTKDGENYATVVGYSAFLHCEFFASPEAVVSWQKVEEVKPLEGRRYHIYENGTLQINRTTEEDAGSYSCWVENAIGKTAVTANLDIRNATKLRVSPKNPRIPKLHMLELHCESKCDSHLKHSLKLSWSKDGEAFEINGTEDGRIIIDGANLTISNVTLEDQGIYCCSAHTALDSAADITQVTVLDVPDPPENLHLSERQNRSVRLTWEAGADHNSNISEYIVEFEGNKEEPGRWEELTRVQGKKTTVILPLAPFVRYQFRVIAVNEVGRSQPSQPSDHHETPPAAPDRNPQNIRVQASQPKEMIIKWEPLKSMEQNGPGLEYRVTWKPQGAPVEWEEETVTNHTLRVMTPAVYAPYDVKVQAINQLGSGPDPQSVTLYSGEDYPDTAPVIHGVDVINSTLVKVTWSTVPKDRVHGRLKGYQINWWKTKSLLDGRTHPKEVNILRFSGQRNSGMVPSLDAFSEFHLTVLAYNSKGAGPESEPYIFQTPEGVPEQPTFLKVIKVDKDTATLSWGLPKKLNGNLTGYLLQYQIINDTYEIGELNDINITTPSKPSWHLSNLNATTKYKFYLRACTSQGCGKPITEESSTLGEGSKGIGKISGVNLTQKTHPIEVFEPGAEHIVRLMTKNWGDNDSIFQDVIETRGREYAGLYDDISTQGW

PTPRT expressed on cells = molecular target: T5, PTPRT expressed on cells (human, UniProt O14522 26-1441); experiment: cell surface interaction assay: query ECD tetramerised with fluorescent streptavidin on transfected cells, immunofluorescence
T5 construct: whole, on cells
T5 sequence (looked up): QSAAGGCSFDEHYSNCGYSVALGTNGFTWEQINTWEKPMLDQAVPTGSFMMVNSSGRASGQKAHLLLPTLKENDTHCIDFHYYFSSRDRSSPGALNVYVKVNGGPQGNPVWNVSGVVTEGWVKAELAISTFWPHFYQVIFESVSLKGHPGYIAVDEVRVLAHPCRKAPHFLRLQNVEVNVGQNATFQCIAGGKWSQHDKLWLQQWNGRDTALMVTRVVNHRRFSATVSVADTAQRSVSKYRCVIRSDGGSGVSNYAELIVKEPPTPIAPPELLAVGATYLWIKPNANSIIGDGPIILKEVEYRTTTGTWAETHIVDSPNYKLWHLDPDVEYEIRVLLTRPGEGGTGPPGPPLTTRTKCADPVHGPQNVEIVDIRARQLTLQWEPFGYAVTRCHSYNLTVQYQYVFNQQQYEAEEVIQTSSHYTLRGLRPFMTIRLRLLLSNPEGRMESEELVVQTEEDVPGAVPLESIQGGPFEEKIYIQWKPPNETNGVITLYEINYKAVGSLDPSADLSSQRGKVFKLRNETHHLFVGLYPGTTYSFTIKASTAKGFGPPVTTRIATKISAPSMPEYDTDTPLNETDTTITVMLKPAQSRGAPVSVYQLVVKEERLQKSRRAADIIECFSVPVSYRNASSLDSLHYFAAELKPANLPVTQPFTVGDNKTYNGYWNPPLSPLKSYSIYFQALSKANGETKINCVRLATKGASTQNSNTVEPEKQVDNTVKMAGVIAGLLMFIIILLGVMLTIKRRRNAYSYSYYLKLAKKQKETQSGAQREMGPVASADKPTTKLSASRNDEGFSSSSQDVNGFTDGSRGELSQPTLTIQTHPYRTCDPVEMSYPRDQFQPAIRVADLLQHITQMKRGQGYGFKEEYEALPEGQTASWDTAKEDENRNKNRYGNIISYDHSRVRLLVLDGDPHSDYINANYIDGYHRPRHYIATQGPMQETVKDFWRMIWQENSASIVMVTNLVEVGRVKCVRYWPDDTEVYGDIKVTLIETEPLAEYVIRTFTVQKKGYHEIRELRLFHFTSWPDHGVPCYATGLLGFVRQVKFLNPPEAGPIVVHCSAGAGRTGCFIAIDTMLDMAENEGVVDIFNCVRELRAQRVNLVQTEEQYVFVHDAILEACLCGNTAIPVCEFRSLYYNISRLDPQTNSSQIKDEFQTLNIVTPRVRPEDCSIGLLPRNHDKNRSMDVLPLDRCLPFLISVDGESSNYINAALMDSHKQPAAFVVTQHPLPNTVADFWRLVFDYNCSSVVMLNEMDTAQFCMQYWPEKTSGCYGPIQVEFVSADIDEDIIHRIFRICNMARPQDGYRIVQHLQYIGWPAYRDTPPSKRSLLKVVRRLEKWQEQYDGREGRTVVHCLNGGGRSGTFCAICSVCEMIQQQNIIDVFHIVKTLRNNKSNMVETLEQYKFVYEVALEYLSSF

PTPRF expressed on cells [3] = molecular target: T2, PTPRF expressed on cells; experiment: as above

Binder	binding result (PTPRS expressed on cells)	binding result (PTPRF expressed on cells [1])	binding result (PTPRD expressed on cells)	binding result [2]	binding result (PTPRT expressed on cells)	binding result (PTPRF expressed on cells [3])
LRFN5 extracellular domain (receptor, human, UniProt Q96NI6 18-529, looked up, extracellular domain; Streptavidin tetramer in cell assay; ECD-Fc prey in the variant screen; also called LFRN5) QICPKRCVCQILSPNLATLCAKKGLLFVPPNIDRRTVELRLADNFVTNIKRKDFANMTSLVDLTLSRNTISFITPHAFADLRNLRALHLNSNRLTKITNDMFSGLSNLHHLILNNNQLTLISSTAFDDVFALEELDLSYNNLETIPWDAVEKMVSLHTLSLDHNMIDNIPKGTFSHLHKMTRLDVTSNKLQKLPPDPLFQRAQVLATSGIISPSTFALSFGGNPLHCNCELLWLRRLSREDDLETCASPPLLTGRYFWSIPEEEFLCEPPLITRHTHEMRVLEGQRATLRCKARGDPEPAIHWISPEGKLISNATRSLVYDNGTLDILITTVKDTGAFTCIASNPAGEATQIVDLHIIKLPHLLNSTNHIHEPDPGSSDISTSTKSGSNTSSSNGDTKLSQDKIVVAEATSSTALLKFNFQRNIPGIRMFQIQYNGTYDDTLVYRMIPPTSKTFLVNNLAAGTMYDLCVLAIYDDGITSLTATRVVGCIQFTTEQDYVRCHFMQSQFLGGTM	binds	binds	binds			
CNTN1 extracellular domain (receptor, human, UniProt Q12860 21-993, looked up, extracellular domain; Streptavidin tetramer in cell assays; ECD-Fc in SPR; also called contactin 1) EFTWYRRYGHGVSEEDKGFGPIFEEQPINTIYPEESLEGKVSLNCRARASPFPVYKWRMNNGDVDLTSDRYSMVGGNLVINNPDKQKDAGIYYCLASNNYGMVRSTEATLSFGYLDPFPPEERPEVRVKEGKGMVLLCDPPYHFPDDLSYRWLLNEFPVFITMDKRRFVSQTNGNLYIANVEASDKGNYSCFVSSPSITKSVFSKFIPLIPIPERTTKPYPADIVVQFKDVYALMGQNVTLECFALGNPVPDIRWRKVLEPMPSTAEISTSGAVLKIFNIQLEDEGIYECEAENIRGKDKHQARIYVQAFPEWVEHINDTEVDIGSDLYWPCVATGKPIPTIRWLKNGYAYHKGELRLYDVTFENAGMYQCIAENTYGAIYANAELKILALAPTFEMNPMKKKILAAKGGRVIIECKPKAAPKPKFSWSKGTEWLVNSSRILIWEDGSLEINNITRNDGGIYTCFAENNRGKANSTGTLVITDPTRIILAPINADITVGENATMQCAASFDPALDLTFVWSFNGYVIDFNKENIHYQRNFMLDSNGELLIRNAQLKHAGRYTCTAQTIVDNSSASADLVVRGPPGPPGGLRIEDIRATSVALTWSRGSDNHSPISKYTIQTKTILSDDWKDAKTDPPIIEGNMEAARAVDLIPWMEYEFRVVATNTLGRGEPSIPSNRIKTDGAAPNVAPSDVGGGGGRNRELTITWAPLSREYHYGNNFGYIVAFKPFDGEEWKKVTVTNPDTGRYVHKDETMSPSTAFQVKVKAFNNKGDGPYSLVAVINSAQDAPSEAPTEVGVKVLSSSEISVHWEHVLEKIVESYQIRYWAAHDKEEAANRVQVTSQEYSARLENLLPDTQYFIEVGACNSAGCGPPSDMIEAFTKKAPPSQPPRIISSVRSGSRYIITWDHVVALSNESTVTGYKVLYRPDGQHDGKLYSTHKHSIEVPIPRDGEYVVEVRAHSDGGDGVVSQVKIS				binds	no binding	no binding
